# Measurements published in the RNAGym collection of RNA variant scans (doi:10.7554/elife.80360).
# B1: Twister Ribozyme (parent)
# chain: AACACUGCCAAUGCCGGUCCCAAGCCCGGAUAAAAGUGGAGGGGGCGG
# Variants of: B1
# Assay: self-cleavage, relative activity (ratio to wild type); higher = more cleavage; co-transcriptional
row,Variant,self-cleavage
1,A22U A34G,0.535
2,A30C A35G,0.38
3,C15A A35G,0.285
4,A1C A4C,0.171
5,A2C A40C,0.07
6,A2C A40U,0.0387
7,C19A C26A,0.0793
8,G7U G24U,0.0676
9,G36C G47U,0.376
10,C21A A34U,0.102
11,G29C C46U,0.769
12,G39C G42A,0.148
13,C9U G48C,0.795
14,C3A G48U,0.282
15,A32U G36A,0.701
16,G42C G44A,0.396
17,G13A C20U,0.262
18,C21U A40G,0.0774
19,C15U G16A,0.457
20,C15U G16C,0.464
21,G39U G48C,0.265
22,G24U C46A,0.0884
23,G24U C46U,0.0749
24,C3U G7C,0.0424

row,Variant,self-cleavage
1,U12A G36A,0.924
2,A34U G41C,0.176
3,A32G A34G,0.679
4,C14A G39C,0.154
5,C8U U31G,0.603
6,A33U C46U,0.917
7,G17A A34G,0.211
8,A4U A33C,0.0899
9,C21A A32U,0.152
10,A4U A34G,0.0772
11,C25U G45A,0.587
12,C27G A34U,0.0972
13,C8A G44A,0.555
14,C9A G39U,0.131
15,C15A G16U,0.34
16,C14A A40U,0.143
17,A2U G28C,0.533
18,A2C G38A,0.102
19,C46G G47U,0.728
20,A10G G17A,1.02
21,A11U A34C,0.365
22,G28C U37G,0.144
23,A2G C25U,0.128
24,C21A A30U,0.152

row,Variant,self-cleavage
1,C14A C21U,0.138
2,G41U G44C,0.218
3,A22C G41U,0.366
4,C27G G38C,0.0767
5,C8U A40U,0.17
6,C46U G48A,0.885
7,C5A U12A,0.764
8,A35U G48A,1.02
9,A4U A22U,0.0795
10,U12A A40U,0.192
11,G42A,0.516
12,A2G U6C,0.103
13,G29U U31A,0.999
14,C9G U12G,0.492
15,G7A A10U,0.505
16,A10U G29U,0.939
17,C21U A32G,0.0636
18,G16U A30U,1.08
19,A22C C27U,0.901
20,A30G G48A,0.958
21,G13A G16A,0.352
22,U18G C26U,0.0716
23,A34G G47A,0.477
24,U31C G38A,0.81

row,Variant,self-cleavage
1,G7A A35G,0.123
2,C5G C9A,0.167
3,A1C G17U,0.166
4,U12A G38A,1.08
5,C9G C21U,0.0793
6,C9U G29U,0.606
7,A33C A40C,0.131
8,A33C A40G,0.182
9,C26A A40C,0.119
10,G28U U31C,0.946
11,A40U C46G,0.16
12,A40U C46U,0.163
13,A10G A33G,1.04
14,A11U A32C,0.926
15,G38U G47C,0.228
16,C14A G48U,0.887
17,G43A G48U,0.291
18,C21U A35G,0.108
19,U6A G39A,0.255
20,A4G A30C,0.736
21,A2U G13C,0.0514
22,A22U G48C,0.954
23,C8U G28C,0.469
24,C3U G39U,0.066

row,Variant,self-cleavage
1,A4G C25U,0.595
2,A4G G28C,0.529
3,U12A C21A,0.152
4,A1U A22G,0.0451
5,U18C A32U,0.464
6,G29A A30U,0.709
7,C8A A33G,0.228
8,C3A G43C,0.0669
9,G38U C46A,0.794
10,U6C A30U,0.493
11,G7C A40C,0.0472
12,C8G A40U,0.0905
13,C21G A30G,0.0493
14,G13U A33C,0.563
15,C8G,0.558
16,A11U U31C,1.04
17,A2G G44U,0.215
18,C5A A35U,0.508
19,U6G C15G,0.0391
20,U18C G44U,0.498
21,U18C G42A,0.0575
22,C8A A11C,0.514
23,A23G G44C,0.508
24,U37C G43U,0.106

row,Variant,self-cleavage
1,G24A A34G,0.0576
2,C14U C26U,0.403
3,A22G G44A,0.315
4,A2C G28U,0.0994
5,G38C G44U,1.02
6,U18A A22C,0.485
7,C14A G41U,0.55
8,A1G G28A,0.406
9,C3U A30C,0.335
10,U18A A23C,0.372
11,C9A G48C,0.541
12,A1C A33U,0.268
13,C14U C19G,0.518
14,A11G A30U,0.976
15,A22U A23G,0.0873
16,C19U A34G,0.601
17,A34C G43U,0.14
18,A10C A30C,0.884
19,C14G G43C,0.0465
20,G24C G42C,0.0931
21,A11G G24C,0.0551
22,G28U,0.91
23,A11C G42U,0.136
24,A1U C27G,0.0626

row,Variant,self-cleavage
1,C3G A40G,0.111
2,A30G U31C,0.988
3,A2G G7C,0.087
4,G16C G41U,0.103
5,U31G G47U,0.92
6,C19G G45U,0.174
7,G17A A30G,0.615
8,G29A A33U,0.759
9,C21U G39C,0.114
10,G7C G47C,0.122
11,C3G C25U,0.317
12,U6A G28C,0.524
13,C9U A11C,0.736
14,A1G C20U,0.35
15,G16C U37A,0.165
16,A33C G42U,0.188
17,C14A G44U,0.883
18,G24A G44A,0.101
19,U12C A32C,0.982
20,C9U U12G,0.501
21,G13C C14U,0.408
22,U12C G24U,0.168
23,A22G C26A,0.0908
